Assay [1] concerns the target T1, human PSMA on cells (Cho-hPSMA, CHO-K1 cells overexpressing full-length human PSMA) (human, UniProt Q04609 1-750).
T1 construct: whole, on cells; also called cell surface PSMA; PSMA-expressing Lncap cells
Nature of the assay: hybridoma screening on cells.

The next assay has as its target hIL5 (human, UniProt P05113 20-134). The assay can be described thus: ELISA. (In general: In an ELISA, binding on a coated surface is turned into a signal by an enzyme label.)
In another assay the target is hTSLP (human, UniProt Q969D9 29-159). Nature of the assay: ELISA.

T1 sequence (Q04609 whole entry): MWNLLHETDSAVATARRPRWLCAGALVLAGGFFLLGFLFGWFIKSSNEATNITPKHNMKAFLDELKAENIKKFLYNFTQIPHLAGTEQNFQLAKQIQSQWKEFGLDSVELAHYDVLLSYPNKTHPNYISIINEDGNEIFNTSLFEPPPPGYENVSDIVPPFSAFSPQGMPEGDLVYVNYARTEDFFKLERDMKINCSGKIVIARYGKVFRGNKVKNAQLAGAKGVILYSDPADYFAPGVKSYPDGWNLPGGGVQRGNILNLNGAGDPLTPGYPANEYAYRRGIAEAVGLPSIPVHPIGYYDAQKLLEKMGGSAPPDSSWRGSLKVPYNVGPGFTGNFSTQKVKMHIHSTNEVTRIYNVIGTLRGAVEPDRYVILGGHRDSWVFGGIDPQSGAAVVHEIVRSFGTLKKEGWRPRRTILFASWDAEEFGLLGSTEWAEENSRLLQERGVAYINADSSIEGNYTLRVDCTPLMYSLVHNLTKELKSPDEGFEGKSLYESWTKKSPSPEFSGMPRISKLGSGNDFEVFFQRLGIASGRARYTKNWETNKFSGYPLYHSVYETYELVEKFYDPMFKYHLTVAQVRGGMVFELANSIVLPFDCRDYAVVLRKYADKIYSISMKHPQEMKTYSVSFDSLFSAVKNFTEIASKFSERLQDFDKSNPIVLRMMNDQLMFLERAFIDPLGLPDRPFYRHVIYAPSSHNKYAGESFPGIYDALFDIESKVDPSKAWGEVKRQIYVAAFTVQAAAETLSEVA

B1: murine antibody 50 (antibody, V domains shown)
VH: QVQLQQSGAELARPGASVKLSCKASGFTFTNYGISWVKQRTGQGLEWIGEIYPRSGNTYYNTNFKGEATLTADKSSSTAFMELRSLTSEDSAVYFCARNPFTTVVEGFAFWGQGTLVTVSA
VL: DVFMTQSPLSLPVSLGDQASISCRSSQSILHSNGNTYLEWYLQKPGQSPKLLIYRVSNRFSGVPDRFSGSGSGTDFTLKISRVEAEDLGVYYCFQGLHVPPTFGAGTKLELK
notes: murine hybridoma antibody
B1: in assay [1], the binding result is “binds”.

B2: murine antibody 43 (antibody, V domains shown)
VH: EVKFEESGGGLVQPGGSMKLSCVASGFTFSNYWMNWLRQSPEKGLEWVAQVRLKSDNYATHYAESVKGRFTISRDDSKSSAYLQMNNLRAEDTGIYYCSENYYGPAGPFDFWGQGTTLTVSS
VL: DIVMTQSQKFMSTTVGDRVSITCKASQNVHTSVAWYQQKPGQSPKLLIYSASNRYSGVPDRFTGSGSGTDFTLTINNMQSEDLADYFCQQYSSYPLTFGVGTKLELK
notes: murine hybridoma antibody
As for B2, the binding result in assay [1] was “binds”.

B3: murine antibody 46 (antibody, V domains shown)
VH: EVQLVESGGDLVKPGGSLKLSCAASGFTFSNYGMSWVRQTPDKRIKWVATIGSGGGYTYYSDSVKGRFTISRDNAKNTLYLQMSSLKSEDTAIYYCVRHPQIGYWGQGTLVTVSA
VL: DIVMTQSQKFMSTTVGDRVTITCKASQSVGTAVAWYQQKPGQSPKLLIYSASSRYTGVPDRFTGSGSGTDFTLTITNMQSEDLADYFCHQYSSYPLTFGGGTKLEIK
notes: murine hybridoma antibody
With B3, the binding result in assay [1] is “binds”.

B4: murine antibody 15 (antibody, V domains shown)
VH: EFQLQQSGPELVKPGASVKISCKASGYSFTDHNMNWVKQSNGKSLEWIGLINPNYGTADYNQKFKGKATLTVDQSSTTAFMQFTSLTSEDSAVYYCARGSSLFAYWGQGTLVTVSA
VL: DIVMTQSHKFMSTSVGDRVNITCKASQGVDTAVAWYQQKPGQSPKLLIYWASTRHTGVPDRFTGSGSGTDFTLTISNVQSEDLADYFCQQYSRYPLTFGAGTKLELK
notes: murine hybridoma antibody
Take B4: the binding result in assay [1] is given as “binds”.

B5: murine antibody 71 (antibody, V domains shown)
VH: QVQLVETGGGLVRPGNSLKLSCVTSGFTFSNYRMHWLRQPPGKRLEWIAVITVKSDNYGSSYAESVKGRFAISRDDSKSSVYLEMNRLREEDTATYFCSRELGQVLVFWGQGTLVTVSA
VL: DVVVTQTPLSLPVSLGDQASISCRSSQSLVHSYGNTYLHWYLQKPGQSPKLLIYKVSNRFSGVPDRFSGSGSGTDFTLKISRVEAEDLGVYFCSQTTHVPWTFGGGTKLEIK
notes: murine hybridoma antibody
As for B5, in assay [1], the binding result is given as “binds”.

B6: HJ-8 (bispecific antibody)
chain 1: not shown
chain 2: DIQMTQSPSSVSASVGDRVTITCRASQDIANYLSWYQQKPGKSPKLLIYGTSNLEVGVPSRFSGSRSGTDFTLTISSLQPEDFATYYCLQDKEFPRTFGGGTKVEIKRTVASSGAPRFLTRPKASVVSVGKDATLSSQIVGNPFPQVSWEKDKQPVTAGVRFRLAQDGDLYRLKILDLQLSDSGQYVSRARNAHGEAFACLGLQVDAEA
chain 3: EVQLVQSGAEVKKPGSSVKVSCKASGYTFSNYLIEWVRQAPGQGLEWIGVIDPGVGDTNYNENFKGRATLTADKSTSTAYIELSSLRSEDTAVYYCAREDNTGTAFDYWGQGTTVTVSSASTKGPSVFPLAPSSKSTSGGTAALGCLVKDYFPEPVTVSWNSGALTSGVHTFPAVLQSSGLYSLSSVVTVPSSSLGTQTYICNVNHKPSNTKVDKKVEPKSCDKTHTCPPCPAPEAAGGPSVFLFPPKPKDTLMISRTPEVTCVVVDVSHEDPEVKFNWYVDGVEVHNAKTKPREEQYNSTYRVVSVLTVLHQDWLNGKEYKCKVSNKALPAPIEKTISKAKGQPREPQVCTLPPSREEMTKNQVSLSCAVKGFYPSDIAVEWESNGQPENNYKTTPPVLDSDGSFFLVSKLTVDKSRWQQGNVFSCSVMHEALHNHYTQKSLSLSPGK
chain 4: SIVMTQTPLSLSVTPGQPASISCKASQSVSSDVTWYLQKPGQSPQLLIYYVSEHYTGVPDRFSGSGYGTDFTLKISRVEAEDVGVYYCQQHHRFPLTFGQGTKLEIKRTVAAPSVFIFPPSDEQLKSGTASVVCLLNNFYPREAKVQWKVDNALQSGNSQESVTEQDSKDSTYSLSSTLTLSKADYEKHKVYACEVTHQGLSSPVTKSFNRGEC
Take B6: the EC50 (as a rule, the concentration giving half of the maximal effect) with hIL5 is 18.7 nM; with hTSLP it was 3.33 nM.

B7: HJ-9 (bispecific antibody)
chain 1: not shown
chain 2: DIQMTQSPSSVSASVGDRVTITCRASQDIANYLSWYQQKPGKSPKLLIYGTSNLEVGVPSRFSGSRSGTDFTLTISSLQPEDFATYYCLQDKEFPRTFGGGTKVEIKRTVASSGAPRFLTCPKASVVSVGKDATLSSQIVGNPFPQVSWEKDKQPVTAGVRFRLAQDGDLYRLKILDLQLSDSGQYVSRARNAHGEAFACLGLQVDAEA
chain 3: EVQLVQSGAEVKKPGSSVKVSCKASGYTFSNYLIEWVRQAPGQGLEWIGVIDPGVGDTNYNENFKGRATLTADKSTSTAYIELSSLRSEDTAVYYCAREDNTGTAFDYWGQGTTVTVSSASTKGPSVFPLAPSSKSTSGGTAALGCLVKDYFPEPVTVSWNSGALTSGVHTFPAVLQSSGLYSLSSVVTVPSSSLGTQTYICNVNHKPSNTKVDKKVEPKSCDKTHTCPPCPAPEAAGGPSVFLFPPKPKDTLMISRTPEVTCVVVDVSHEDPEVKFNWYVDGVEVHNAKTKPREEQYNSTYRVVSVLTVLHQDWLNGKEYKCKVSNKALPAPIEKTISKAKGQPREPQVCTLPPSREEMTKNQVSLSCAVKGFYPSDIAVEWESNGQPENNYKTTPPVLDSDGSFFLVSKLTVDKSRWQQGNVFSCSVMHEALHNHYTQKSLSLSPGK
chain 4: SIVMTQTPLSLSVTPGQPASISCKASQSVSSDVTWYLQKPGQSPQLLIYYVSEHYTGVPDRFSGSGYGTDFTLKISRVEAEDVGVYYCQQHHRFPLTFGQGTKLEIKRTVAAPSVFIFPPSDEQLKSGTASVVCLLNNFYPREAKVQWKVDNALQSGNSQESVTEQDSKDSTYSLSSTLTLSKADYEKHKVYACEVTHQGLSSPVTKSFNRGEC
For B7, the EC50 was 10.9 nM with hIL5 and 3.18 nM with hTSLP.

B8: HJ-10 (bispecific antibody)
chain 1: not shown
chain 2: DIQMTQSPSSVSASVGDRVTITCRASQDIANYLSWYQQKPGKSPKLLIYGTSNLEVGVPSRFSGSRSGTDFTLTISSLQPEDFATYYCLQDKEFPRTFGGGTKVEIKRTVASSGAPRFLTRPKASVVSVGKDATLSCQIVGNPFPQVSWEKDKQPVTAGVRFRLAQDGDLYRLKILDLQLSDSGQYVCRARNAHGEAFACLGLQVDAEA
chain 3: EVQLVQSGAEVKKPGSSVKVSCKASGYTFSNYLIEWVRQAPGQGLEWIGVIDPGVGDTNYNENFKGRATLTADKSTSTAYIELSSLRSEDTAVYYCAREDNTGTAFDYWGQGTTVTVSSASTKGPSVFPLAPSSKSTSGGTAALGCLVKDYFPEPVTVSWNSGALTSGVHTFPAVLQSSGLYSLSSVVTVPSSSLGTQTYICNVNHKPSNTKVDKKVEPKSCDKTHTCPPCPAPEAAGGPSVFLFPPKPKDTLMISRTPEVTCVVVDVSHEDPEVKFNWYVDGVEVHNAKTKPREEQYNSTYRVVSVLTVLHQDWLNGKEYKCKVSNKALPAPIEKTISKAKGQPREPQVCTLPPSREEMTKNQVSLSCAVKGFYPSDIAVEWESNGQPENNYKTTPPVLDSDGSFFLVSKLTVDKSRWQQGNVFSCSVMHEALHNHYTQKSLSLSPGK
chain 4: SIVMTQTPLSLSVTPGQPASISCKASQSVSSDVTWYLQKPGQSPQLLIYYVSEHYTGVPDRFSGSGYGTDFTLKISRVEAEDVGVYYCQQHHRFPLTFGQGTKLEIKRTVAAPSVFIFPPSDEQLKSGTASVVCLLNNFYPREAKVQWKVDNALQSGNSQESVTEQDSKDSTYSLSSTLTLSKADYEKHKVYACEVTHQGLSSPVTKSFNRGEC
Turning to B8, the results for the EC50 with hIL5 and with hTSLP were 20.8 nM and 3.17 nM, respectively.

B9: HJ-11 (bispecific antibody)
chain 1: not shown
chain 2: DIQMTQSPSSVSASVGDRVTITCRASQDIANYLSWYQQKPGKSPKLLIYGTSNLEVGVPSRFSGSRSGTDFTLTISSLQPEDFATYYCLQDKEFPRTFGGGTKVEIKRTVASSGCPRFLTRPKASVVSVGKDATLSCQIVGNPFPQVSWEKDKQPVTAGVRFRLAQDGDLYRLKILDLQLSDSGQYVCRARNAHGEAFACLGLQVDAEA
chain 3: EVQLVQSGAEVKKPGSSVKVSCKASGYTFSNYLIEWVRQAPGQGLEWIGVIDPGVGDTNYNENFKGRATLTADKSTSTAYIELSSLRSEDTAVYYCAREDNTGTAFDYWGQGTTVTVSSASTKGPSVFPLAPSSKSTSGGTAALGCLVKDYFPEPVTVSWNSGALTSGVHTFPAVLQSSGLYSLSSVVTVPSSSLGTQTYICNVNHKPSNTKVDKKVEPKSCDKTHTCPPCPAPEAAGGPSVFLFPPKPKDTLMISRTPEVTCVVVDVSHEDPEVKFNWYVDGVEVHNAKTKPREEQYNSTYRVVSVLTVLHQDWLNGKEYKCKVSNKALPAPIEKTISKAKGQPREPQVCTLPPSREEMTKNQVSLSCAVKGFYPSDIAVEWESNGQPENNYKTTPPVLDSDGSFFLVSKLTVDKSRWQQGNVFSCSVMHEALHNHYTQKSLSLSPGK
chain 4: SIVMTQTPLSLSVTPGQPASISCKASQSVSSDVTWYLQKPGQSPQLLIYYVSEHYTGVPDRFSGSGYGTDFTLKISRVEAEDVGVYYCQQHHRFPLTFGQGTKLEIKRTVAAPSVFIFPPSDEQLKSGTASVVCLLNNFYPREAKVQWKVDNALQSGNSQESVTEQDSKDSTYSLSSTLTLSKADYEKHKVYACEVTHQGLSSPVTKSFNRGEC
As for B9, the EC50 in the assay with hIL5 is 9.46 nM; with hTSLP it was 3 nM.

B10: murine antibody 2 (antibody, V domains shown)
VH: EVKLVESEGGLVQPGSSMKLSCTASGFTFSDYYMAWVRQVPEKGLEWVANINFDGSSTYYLDSLKSRFIISRDNAKNILYLQMSSLKSEDTATYYCARDLDGYYGYFDVWGTGTTVTVSS
VL: QIVLTQSPAIMSASPGEKVTISCSASSSVSHMYWYQQKPGSSPKPWIYRTSNLASGVPARFSGSGSGTSYSLTISSMEAEDAATYYCQQYHSYPLMFGAGTKLELK
notes: murine hybridoma antibody
Turning to B10, in assay [1], the binding result was “binds”.

B11: murine antibody 27 (antibody, V domains shown)
VH: EVKLVESEGGLVQPGSSMKLSCTASGFTFSDYYMAWVRQVPEKGLEWVANINYDGSSTYYLDSLKSRFIISRDNAKNILYLQMSSLKSEDTATYYCARDLDGYYGYFDVWGTGTTVTVSS
VL: QIVLTQSPAIMSASPGEKVTISCSASSSVSYMYWYQQKPGSSPKPWIYRTSNLASGVPARFSGSGSGTSYSLTISSMEAEDAATYYCQQYHSYPLTFGAGTKLELK
notes: murine hybridoma antibody
As for B11, the binding result in assay [1] is reported as “binds”.

B12: murine antibody 19 (antibody, V domains shown)
VH: EVKLVESEGGLVQPGSSMKLSCTASGFTFSDYYMAWVRQVPERGLEWVANINYDGSSTYYLDSLKSRFIISRDNAKNILYLQMSSLKSEDTATYYCARGGDYWDAMDYWGQGTSVTVSS
VL: DIQMTQTTSSLSASLGDRVTISCRASQDISKYLNWYQQKPDGTVKLLIYYTSSLHSGVPSRFSGSGSGTDYSLTISNLEQEDIATYFCQQGNRLPRTFGGGTKLEIK
notes: murine hybridoma antibody
Turning to B12, the binding result in assay [1] is “binds”.

Source of the values: US20250043022A1 (JIANGSU HENGRUI PHARMACEUTICALS, published 2025).
